Measurements reported in US20260217797A1 (Takeda / Millennium, published 2026).

Experiments:
[1] = biological target: SARS-CoV-2 B.1.1.7 N501Y (Alpha) RBD (SARS-CoV-2, UniProt P0DTC2 319-541); assay: Octet BLI single point, monovalent
[2] = biological target: SARS-CoV-2 L452R RBD (Epsilon) (SARS-CoV-2, UniProt P0DTC2 319-541); assay: Octet BLI single point, monovalent
[3] = biological target: SARS-CoV-2 P.1 Spike (Gamma) (SARS-CoV-2, UniProt P0DTC2 16-1213); assay: Octet BLI single point, monovalent
[4] = biological target: SARS-CoV-2 RBD-mFc (SARS-CoV-2, UniProt P0DTC2 319-541); assay: Octet BLI, IgG, avid
[5] = biological target: SARS-CoV-2 Alpha (B.1.1.7) spike protein (on reporter virus particles) (SARS-CoV-2, UniProt P0DTC2 14-1273); assay: cell-based or functional assay
[6] = biological target: SARS-CoV-2 Beta (B.1.351) spike protein (on reporter virus particles) (SARS-CoV-2, UniProt P0DTC2 14-1273); assay: cell-based or functional assay
[7] = biological target: SARS-CoV-2 B.1.617.2 (Delta) RBD (SARS-CoV-2, UniProt P0DTC2 319-541); assay: Octet BLI single point, monovalent
[8] = biological target: SARS-CoV-2 B.1.351 (Beta) RBD (SARS-CoV-2, UniProt P0DTC2 319-541); assay: Octet BLI single point, monovalent
[9] = biological target: SARS-CoV-2 B.1.617.1 (Kappa) RBD (SARS-CoV-2, UniProt P0DTC2 319-541); assay: Octet BLI single point, monovalent
[10] = biological target: SARS-CoV-2 Omicron (B.1.529) spike protein (on reporter virus particles) (SARS-CoV-2, UniProt P0DTC2 14-1273); assay: cell-based or functional assay
[11] = biological target: SARS-CoV-2 Gamma (P.1) spike protein (on reporter virus particles) (SARS-CoV-2, UniProt P0DTC2 14-1273); assay: cell-based or functional assay
[12] = biological target: SARS-CoV-2 Epsilon (B.1.427/429) spike protein (on reporter virus particles) (SARS-CoV-2, UniProt P0DTC2 14-1273); assay: cell-based or functional assay

Row | Binder | Kd [1] [nM] | Kd [2] [nM] | Kd [3] [nM] | Kd [4] [nM] | PsV neutralization IC50 [5] [µg/mL] | PsV neutralization IC90 [5] [µg/mL] | PsV neutralization IC50 [6] [µg/mL] | PsV neutralization IC90 [6] [µg/mL] | Kd [7] [nM] | Kd [8] [nM] | Kd [9] [nM] | PsV IC50, Test 1 [10] [nM] | PsV IC50, Test 2 [10] [nM] | PsV neutralization IC50 [11] [µg/mL] | PsV neutralization IC90 [11] [µg/mL] | PsV neutralization IC50 [12] [µg/mL] | PsV neutralization IC90 [12] [µg/mL]
1 | A-6 (antibody, V domains shown) VH: QVQLVQSGGGVVQPGRSLRLSCAASGFTFSNFAMHWVRQAPGKGLEWVAVILYDGINKYYADSVKGRFTISRGNSKNTLSLQMNSLRAEDTAVYYCARAQNYYDRSGTLQLDAFDIWGQGTMVTVSS VL: DIVMTQSPSSLSASVGDRVTITCRASQGIRNDLGWYQQKPGKAPKLLIYAASSLQSGVPSRFSGSGSGTDFTLTISSLQPEDFATYYCLQDYNYPLTFGGGTKVEIK | 1.46 | 1.45 | 2.05 | 0.146 | 0.192 | 1.21 | 0.171 | 1.47 |  |  |  |  |  |  |  |  | 
2 | A-18 (antibody, V domains shown) VH: EVQLLESGGGLVQPGGSLRLSCAASGFTFSRYWMHWVRQAPGKGLVWVSRINSDGSSTTYADSVKGRFTISRDNAKNTLYLQMNSLRAEDTAVYYCARELYYYDSRGAEEGEGWFDPWGQGTLVTVSS VL: QSVLTQPPSVSGAPGQRVTISCTGISSNIGAGYDVHWYQQLPGTAPKLLIYGNSNRPSGVPDRFSASKSGTSAPLAITGLQAEDEADYYCQSSDRSLSGSVFGTGTKLTVL | 1.03 | 1.22 | 0.553 | 0.0757 | 0.316 | 2.04 | 0.259 | 1.65 | 0.649 | 0.444 | 0.714 | 1.96 | 8.84 |  |  |  | 
3 | A-9 (antibody, V domains shown) VH: EVQLVESGGGLVKPGRSLRLSCAASGFTFADYAMSWFRQAPGKGLEWVGFIRSKPYGGTTEYAASVKGRFTISRDDSKSIAYLQMNSLKTEDTAVYYCSRDPWYCSGGDCYAVTGSWFDPWGQGTLVTVSS VL: DIVLTQSPSSLSASVGDRVTITCQASQDIKKYLNWYQQKPGKAPKLLIYDVSNLETGVPSRFSGSGSGTDFTFTISSLQPEDVAIYYCQQYDNLPQTFGQGTKVDIK | 10 |  | 15 | 0.147 | 0.019 | 0.118 | 0.028 | 0.184 | 12.9 | 17.8 | 6.28 | 20.8 |  |  |  |  | 
4 | A-22 (antibody, V domains shown) VH: not shown VL: EIVLTQSPGTLSLSPGERATLSCRASQTVRSDLAWYQQKPGQAPRLLIYGASTRATDISDRFSGSGSGTEFTLTISSLQSEDFAVYYCQQYYEWPPHSDSFGGGTKVEIK | 0.35 | 0.756 | 0.258 |  | 1.53 | 9.54 | 2.13 | 12.8 |  | 0.25 | 0.218 |  |  | 0.335 | 0.736 | 1.49 | 25.3
